Source: PMC4163360

Molecular target: selenomethionyl (Se-Met) labeled MJ0927 (Methanocaldococcus jannaschii)
Assay: crystal structure; Se-Met MJ0927, P2_(1) crystal form, MAD phasing; crystals grown at 4°C, 5% PEG3350, 0.1 M sodium acetate pH 5.0, 0.3 M sodium formate, 0.1 M ammonium sulfate, 3% PGA-LM; six molecules in the asymmetric unit

## selenomethionyl (Se-Met) labeled MJ0927 (natural protein)
  stoichiometry N: 6
